A short description of the data set: soluble on expression in E. coli; label from the status in PepcDB or PDB records.
Consider “MSLNEIDNKLFLVYVGGTAPGANIELHDIRFVVGPSMEETYPAIRKGWFGTQKGLHLDSFVHLHHVDGYRIHLTSEAHEKPEEKRLYFVNFGGYFPNKLAEYHDFTVVVADSPQSAKQLARAQFSKAGLADAEQIHKDDLLAVDDCLCVDLVDNHYVTLEFDGEQQPLVPDWKGYQPLPEGHHHHHH”, for which the “soluble on expression in E. coli” value is reported as “soluble”. Then “MIVDMRLRPPIPGFARSTLYQAGPKTSHPDFPVEPSVGQCSLPLLISEMDAAGVAVGVVPGRYSMEPFGIVSNDELATLFADHPGRFVGFMGLDLGWPMQRMLDEIDARVGTPGFRGVALEPTISADASFCGMNDKRLYPIYEACVKHGVPVSVTLSAVLQAFTKRPYEHSNPVQAYQVAIDFPGLDIVIAHAAYPWVMEMIGVCLTCPNVWLSPDLYLTNVFPGAQEYAKAAATYLPRRTLFGTGYPAKPFKPMIDAYAAWGWPQDVVAAILGGNAARLLRLADQLEHHHHHH”, with “not soluble”. As to “PEDPSDLLQHVKFQSSNFENILTWDSGPEGTPDTVYSIEYKTYGERDWVAKKGCQRITRKSCNLTVETGNLTELYYARVTAVSAGGRSATKMTDRFSSLQHTTLKPPDVTCISKVRSIQMIVHPTPTPIRAGDGHRLTLEDIFHDLFYHLELQVNRTYQMHLGGKQREYEFFGLTPDTEFLGTIMILVPTWAKESAPYMCRVKTLPDRTWT”, the “soluble on expression in E. coli” value is recorded as “soluble”. For “MGSDKIHHHHHHMKNRIEDRRIKYTKMVIKQSLITLLKNKPINKVTVTEICNLADINRSTFYTHYSNPYDLLDSIEEELFEEVKSSLRDSEGETKIENTVNEIFKAIAKNKELFKIFFSSHRDYGFLIKFFGAVYNNSIDNFKSAFKSNNDAQLEYLYNYILTGNASISYKWIKNGLKESPEEMASLVNRLIVHTMSFIK” the value was “not soluble”; for “MTETKEERVHQVFEKIYKRYDVMNSVISFQRHKAWRKDTMKRMNVQEGQSALDVCCGTADWAIALGKAVGPTGHVEGLDFSENMLSIGKKKIADERLDHVFLRHGNAMELPYADDTFDFVTIGFGLRNVPDYMQVLREMARVTKPGGKVVCLETSQPTIPVFKQLYFFYFRHVMPLFGKMFAKSYDEYSWLQESTLSFPGRDRLAQMFKEVGLTDVQVKPYSGGAAAMHLGVKESYDEESRNVTCLEHHHHHH”, “not soluble”; for “MHTVVMTKGVPDFREGQVSFDEDGHLERGKTPTVMNPNDKHALRAAFQTKVRNGGHVSLMSMGPPGYKEVLQEGMRDVYADDLYLLSDREMGAADTWATAMTVATGLQNLEEQPDLVFAGFKTADGETGHTGPQTCWCLDWPIITHVLSLDIDEDAGTVRAKRLVDGDISEIETVEAPMPCFIVADPEFEPTYRKASHRLKHKDLREETQERATEYEEYLTIWDHEGLNLDPDYIGLDGSPTIVAGVDPIPKAPSEREATVIEADEREALEPVLDELTPYAAGD”, “not soluble”.

In the case of “MKIVMKISEVRGEILLAAADADIVGKKFREKNLHIEVYPSFYGEVRVTDEMFISSMNICTIANLVGEYTIGVAIDAGFIEKDNILYIQKVPYAQYAKIFQ”, the “soluble on expression in E. coli” value is recorded as “soluble”. For the sequence “MNSENSFSSSEHITVLLHEAVNGLALKENGIYIDGTFGRGGHSRFILSQLSSNGRLIAVDRDPRAIAEAHKIQDLRFQIEHNSFSHIPEICDKLNLVGKIDGILLDLGVSSPQLDEAERGFSFMKDGPLDMRMDTTQGLSAEEWLKQVSIEDLTWVLKTFGEERFAKRIATAIVDFNKSAVKNGTEFLSRTSQLAELISQAVPFKDKHKHPATRSFQAIRIFINSELDELESLLNSALDMLAPEGRLSIISFHSLEDRMVKHFMKKQSKGEDIPKGLPLREDQIQRNQKLRIIGKAIQPSDAEIQANPRSRSAILRVAERILEHHHHHH”, the “soluble on expression in E. coli” value is “soluble”.

Consider “MAHHHHHHMEHVRHLLDVIMGRATLDPGVARVVSVFFNQKSSGFSPQELMQFLVTCAFHVKGMTPLEAARFCFFALRRDMEHAIARDDVIFMLEHSLIEHTIEMPEMELRRRVVDIFGDTTYVIFDDFVRYFIHNYAMWYAFGVPVTVSGERSGRGGDVAPQLNPTLTLLKADGEPNAKARAPTAATTVSTSGAAPVSASTSTTAATPAAAITTATTQKTVPHDESVWRTFIARVQHSNKAFSVTAHVNDTIFDVMVMVQNSTGIRAACQEWRAGNVALDPKCRLGSTELGLGGNEVAAPEVIIIARDEAVRLVMVYKEKGFRWEVRLPSSEKVLKLRALVQHKTMIPLTRCVLRAHGSCLMDRHPLAHYNLQDGDVVTITQE”, for which the “soluble on expression in E. coli” value was “not soluble”. For “GSHMSAGIGESRTELLTWLNGLLNLNYKKIEECGTGAAYCQIMDSIYGDLPMNRVKFNATAEYEFQTNYKILQSCFSRHGIEKTVYVDKLIRCKFQDNLEFLQWLKKHWIRHKDESVYDPDARRKYR” the value was “soluble”; for “CPRMGHVFPLETRPYNQGSRLTAYELVYDKIPSTLITDSSIAYRIRTSPIPIKAAFVGADRIVRNGDTANKIGTLQLAVICKQFGIKFFVVAPKTTIDNVTETGDDIIVEERNPEEFKVVTGTVINPENGSLILNESGEPITGKVGIAPLEINVWNPAFDITPHELIDGIITEEGVFTKNSSGEFQLESLF”, “soluble”; for “MADRIELRGLTVHGRHGVYDHERVAGQRFVIDVTVWIDLAEAANSDDLADTYDYVRLASRAAEIVAGPPRKLIETVGAEIADHVMDDQRVHAVEVAVHKPQAPIPQTFDDVAVVIRRSRRGGRGWVVPAGGAV”, “soluble”. “GPGSMVEHTGLKYQFFIRAASVDWDARDRESMAAGLCPLYQLLHCDVEKLQFVVYCFGEGEAYMFEKAIQTVTKYVDEEKCIMAVRSLRQRETKGHIIYDVAKKETQPAQFFFLLSYAWGMIAVSFPKVTNYDKWEKQKGAARIIMNCPAEMDVKAMCAWMKRGLDPDEQTKYWKMVETHMEKVGPIPRYIFDANKFLAHFAATEDALDGINPRDGESHFTHGGVRLWYSEDPSHKLVRVVRTRGEVGAEVFLNAPISVCLGRRIPLYFWKRDE”: the “soluble on expression in E. coli” value was “not soluble”. For the sequence “EVASYCDRVVAAVSSWMSTVKSTTEVSWNKLSFCDVLLKIITFGIYSPHETLAEKYSEKKLMDSFSPSLSQDKMDGEFAHANIDGISIRLCLNKGICSVFYLDGDKIQSTQLSSKEYNNLLSSLPPKQFNLGKVHTITAPVSGNFKTHKPAPEVIETAINCCTSIIPNDDYFPVKDTDFNSVWHDIYRDIRASDSNSTKIYFNNIEIPLKLIADLINELGINEFIDSKKELQMLSYNQLNKIINSNFPQQDLCFQTEKLLFTSLFQDPAFISALTSAFWQSLHITSSSVEHIYAQIMSENIENRLNFMPEQRVINNCGHIIKINAVVPKNDTAISASGGRAYEVSSSILPSHITCNGVGINKIETSYLVHAGTLPSSEGLRNAIPPESRQVSFAIISPDV”, the “soluble on expression in E. coli” value is recorded as “soluble”.

For the sequence “KFGELREISGNQYVNEVTNAEKDLWVVIHLYRSSVPMCLVVNQHLSVLARKFPETKFVKAIVNSCIEHYHDNCLPTIFVYKNGQIEGKFIGIIECGGINLKLEELEWKLSEVGAIQSDLEEN”, the “soluble on expression in E. coli” value is reported as “soluble”. Consider “MNFADIFSKIRRQQPSVKEAPNHWVKCQSCHALMYYKEIESCFNVCPKCNYHMRISADERIKLLSDEGSFIEYDANLEAIDPLKFVDSKSYKKRLSEGESKTGRKSSVISGECEINGLKTQLVVFDFSFMGGSLGSVEGEKIVRAIQRAITSKTSLVIVSASGGARMQESTYSLMQMSKTSAALKLLSKEKLPYISILTDPTMGGVSASFAWLGDLIIAEPEALVGFAGARVIKQTIGADLPEGFQKAEFLLEHGLIDAIVERGEQKQYLSDVLKFFSGKLEHHHHHH”, for which the “soluble on expression in E. coli” value is reported as “not soluble”. For the sequence “GPGSMLNTAFSTADGRRLPRDLTDQQKRDIEEAFRVLDVKGVSTITPNDLKVALRALGYEPDKDAVRKLVAEMDRGGVSSNLVLSEFEDVMRQRFFAEDKDDEVDLAFPLFTEGKSEFISLDDLKRVAAEVGEDIPEDVLQEIIRECDVLDRDGRISREEFNKMLKSDK”, the “soluble on expression in E. coli” value was “soluble”. For “MAQILPIRFQEHLQLQNLGINPANIGFSTLTMESDKFICIREKVGEQAQVVIIDMNDPSNPIRRPISADSAIMNPASKVIALKAGKTLQIFNIEMKSKMKAHTMTDDVTFWKWISLNTVALVTDNAVYHWSMEGESQPVKMFDRHSSLAGCQIINYRTDAKQKWLLLTGISAQQNRVVGAMQLYSVDRKVSQPIEGHAASFAQFKMEGNAEESTLFCFAVRGQAGGKLHIIEVGTPPTGNQPFPKKAVDVFFPPEAQNDFPVAMQISEKHDVVFLITKYGYIHLYDLETGTCIYMNRISGETIFVTAPHEATAGIIGVNRKGQVLSVCVEEENIIPYITNVLQNPDLALRMAVRNNLAGAEEL” the value was “soluble”; for “MSLANRIRLHIWGDYACFTRPEMKVERVSYDVITPSAARGILSAIHWKPAINWVIDKIYVLKPIRFESVRRNELGAKISESKVSGAMKRKSVADLYTVIEDDRQQRAATVLKDVAYVIEAHAVMTSKAGVDENTTKHIEMFKRRALKGQCFQQPCMGVREFPAHFALIDDNDPLPLSQLSESEFNRDLGWMLHDIDFEHGNTPHFFRAELKNGVIDVPPFYAEEVKREGHHHHHH”, “soluble”. Consider “MAELSDQEMLRYNRQIILRGFDFDGQEALKDSRVLIVGLGGLGCAASQYLASAGVGNLTLLDFDTVSLSNLQRQTLHSDATVGQPKVESARDALTRINPHIAITPVNALLDDAELAALIAEHDLVLDCTDNVAVRNQLNAGCFAAKVPLVSGAAIRMEGQITVFTYQDGEPCYRCLSRLFGENALTCVEAGVMAPLIGVIGSLQAMEAIKMLAGYGKPASGKIVMYDAMTCQFREMKLMRNPGCEVCGQ”, for which the “soluble on expression in E. coli” value is given as “soluble”. For “MGSDKIHHHHHHMEKSYWEQAHLQLPLKYTWKISRNASTEKINVIVFLCIDGRTYPGEAAPNVRYGESVELIDLQFKHFQTVWKDSLLQDEHAYNDVLDGLKLCQSLRFALESAYVHARCDKDPAFFERYTGIKMHTSPLATSYTLPIMDPGQIQEFIQTHDLTRFDTLKIKTGKEESKELIKTASRYFDKMIRVDANEAWTDPDLLIKELEELKRIPLEFIEQPFESAQKDAYKYFKKYSKIPVIADESITFAPDLKEIKELFHGVNMKLMKAGGYREGANILLKSKELGLKTMVGCMVETTLGIRSGMWISGHSDYIDLDGSFVIDNEPFKLVSENLGRLVIKQVNFFIEKWQK” the value was “not soluble”. For “MGSDKIHHHHHHMSNLKHTRHNSHNVRHHSTGNSMNYVSTGQGEAILLIHGLFGNLDNLKGLGQALEAHHQVIRVDVPNHGLSEHRQQMDYPSLAKAMVDLLDELELERVHIVGHSMGGKIAMATALAYPNRIISLVAADIAPVAYQPRHNAVFAALESLPLEGHTDRRFALAHLLAAGIDDATAQFLLKNLQRSGTGFRWKMNLTGLKSGYPNIIGWHNLPNEPQLVFAGPSLFIRGGDSNYVAAAHRDEILRQFPQAQAKTLEGCGHWLHAQKPTIFNRIVSEFIDKHTV” the value was “not soluble”; for “MATFASRELTEEDDSHPGPSEKSEKDVLGIVRTGPKKLITGESSSLFKLKNELLKRKDRLNSEVHIKHTETHVSGKSNLLSTKKEEKERQARKDESRKLRIEKNERAVRREEDEARLMAAQQKLREKSELYDRMQEGNVVLANLDDTPVEFLVDFGTKKRRIEEERAWERERYREQEEAAPIGFGRAPIPEHYHHSEEQRVYGTSHMRLSLNENKRKEEIEKLLEMSKKTDMDKAKKKETEKHRDILRREKLNKLRAKHGLELLPEIVEPVAVPASQIDLNSIPLPGQKETPEERHARLMKSDREWDRGKGHYTTWIEKQRDERDDEFRPPDSYFR”, “soluble”.

Values taken from the DeepSol protein solubility set.
